Measured values taken from paper PMC553973.

Molecular target: fibronectin 70 kDa N-terminal fragment
Experiment: SPR; BIAcore X; FN 70 kDa fragment immobilised on a CM5 chip; HGF (30–500 nM) injected in HEPES saline pH 7.4 with 1 mM MgCl2, 2 mM CaCl2; equilibrium and Scatchard analysis; apparent Kd; n = 3

hepatocyte growth factor (from UniProt P14210 32-728) (ligand)
Kd: 0.3 µM | Kd of the high affinity site (two-site model): 0.015 µM | Kd of the low affinity site (two-site model): 4 µM
